In US10973882B2, “Methods for reducing severity of pulmonary fibrosis” (CEDARS-SINAI MEDICAL CENTER, priority 2017, dated 2021):

How the values were obtained:
CD24^−Sca-1^−AEC2s = assay: 3D Matrigel organoid culture, colony-forming efficiency (CFE) of mouse AEC2s; type: cell-based
Description: Flow-sorted mouse CD24^−Sca-1^−AEC2s or human HTII-280^+AEC2s were cultured in Matrigel/medium (1:1) mixture in the presence of MLg2908 lung fibroblast cells (Barkauskas et al., 2013; Chen et al., 2012). 100 μl Matrigel/medium mix containing 3×10^3 type 2 cells and 2×10^5 MLg2908 cells were plated into each 0.4-μm Transwell insert of a 24-well plate. 400 μl of medium was added in the lower chambers. Medium was described previously (Chen et al., 2012). Matrigel was from BD Biosciences (catalog 354230). Fresh medium was changed every other day. Cultures were maintained in a humidified 37° C. and 5% CO2 incubator. Colonies were visualized with a Zeiss Axiovert40 inverted fluorescent microscope (Carl Zeiss AG, Oberkochen, Germany). The number of colonies with a diameter of ≥50 μm from each insert was counted, and the colony-forming efficiency (CFE) was determined by the number of colonies in each culture as a percentage of the number of input epithelial cells at day 12 after plating.
For culture with IL-6 protein or anti-IL-6, sorted type 2 cells were pretreated with IL-6 protein or anti-IL-6 at room temperature for 30 minutes. Type 2 cells were then mixed with fibroblasts in the Matrigel/medium mixture and plated into Transwell inserts. The same concentration of IL-6 protein or IL-6 antibody was added into the Matrigel/medium mix and into the medium placed in the lower chambers.
Healon GV was purchased from Abbott Medical Optics (Abbot Park, Ill.). Pep-1 was synthesized by Sigma-Genosys and dissolved in DMSO to form a 100 μg/μl stock solution as described previously (Jiang et al., 2005; Mummert et al., 2000). For 3D matrigel culture, sorted type 2 cells were pretreated with Healon (200 μg/ml) or pep-1 (125 μg/ml) at room temperature for 30 minutes. Higher concentrations of Healon (400 μg/ml, 600 μg/ml, and 800 μg/ml) were used for 3D matrigel culture of IPF AEC2s. Cells were then mixed with fibroblasts in Matrigel/medium mix and plated into Transwell inserts. The same concentrations of Healon or Pep-1 were added into the Matrigel/medium mix and medium that were placed in the lower chambers.
The cell-permeable STAT3 inhibitor S3I-201 was purchased from Santa Cruz Biotechnology (Dallas, Tex.) and dissolved in DMSO to form stock solution of 10 mg/ml (MW 365.36). The dose for treating type 2 cells in colony-formation assays was 50 μM and 100 μM. The same amounts of DMSO were added into the control wells. Flow-sorted type 2 cells were pretreated with the STAT3 inhibitor at 50 μM or 100 μM concentrations, and with IL-6 protein (100 ng/ml), at room temperature for 30 minutes. Cells were then mixed with fibroblasts in Matrigel/medium mix and plated into Transwell inserts. […]

human HTII-280^+AEC2s = assay: 3D matrigel culture, colony-forming efficiency (CFE) of human AEC2s; type: cell-based; settings: AEC2s sorted from diseased (IPF) lung; rIL-6 200 ng/ml vs medium without exogenous IL-6; FIG. 13H
Description: (§1) Recombinant mouse IL-6 protein (Catalog 406-ML/CF, R&D Systems) was supplied in 50 mM sodium acetate and 1 mM EDTA and was diluted (1:5 or more depending on the stock concentration) in sterile PBS, and 2 μg per mouse in 50 μl was injected intramuscularly at 1 day before and at 1 day and 3 days after bleomycin instillation. Control buffer was made of the same volume of 50 mM sodium acetate and 1 mM EDTA solution and PBS. Mouse anti-IL-6 (MAB406, Clone #MP5-20F3, R&D Systems) or control IgG was reconstituted with sterile PBS. 250 μg per mouse in 250 μl sterile PBS was injected intraperitoneally to mice at 1 day before and at 1 day and 3 days after bleomycin instillation. Recombinant human IL-6 protein (Catalog 206-IL-010, R&D Systems) was reconstituted with sterile PBS containing 0.1% BSA. 200 ng/ml was used for organoid culture of human AEC2s.
Single-cell suspensions from human lungs were isolated as described (Barkauskas et al., 2013). The procedures of staining the cells for flow cytometry and data analysis were described previously (Barkauskas et al., 2013; Liang et al., 2012). […] Flow cytometry was performed using a FACSCanto II flow cytometer and FACSAria III sorter (BD Immunocytometry Systems, San Jose, Calif.) and analyzed using Flow Jo 9.6.4 software (Tree Star, Ashland, Oreg.). […]

[1] = test system: bleomycin-induced lung injury; assay: Bleomycin lung injury model with rIL-6 or anti-IL-6 administration; type: in vivo, mouse
From the text: Mice. Tlr4^−/− and Tlr2^−/− mice were obtained (Takeuchi et al., 1999; Kawai et al., 1999), Has2^flox/+ mice were generated using the Cre-loxP system (Li et al., 2011; Matsumoto et al., 2009), and SFTPC-Cre mice, SFTPC-CreER mice, SFTPC-GFP mice, and Rosa-Tomato^flox/flox mice were generated (Barkauskas et al., 2013; Chen et al., 2012; Eblaghie et al., 2006). All mice were backcrossed on the C57Bl/6J background for more than six generations. […] Has2^flox/flox homozygous mice were crossed with SFTPC-Cre^+ mice to generate SFTPC-Cre^+;Has2^flox/flox mice. Rosa-Tomato^flox/flox mice were crossed with SFTPC-CreER mice to generate SFTPC-CreER^+;Rosa-Tomato^flox/flox mice. Animals were randomly assigned to treatment groups, and they were age- and sex-matched. 8- to 12-week-old mice of both sexes (male:female ratio ˜1:1) were used in the bleomycin lung injury model. Animals for experiments were selected by genotype, and no blinding was performed.
Bleomycin instillation and BAL procedures were described previously (Dong et al., 2015; Lovgren et al., 2011). Under anesthesia, the trachea was surgically exposed. 1.25-5 U/kg bleomycin (Hospira, Lake Forest, Ill.) in 25 μl PBS was instilled into the mouse trachea with a 25-G needle inserted between the cartilaginous rings of the trachea. Control animals received saline alone. The tracheostomy site was sutured, and the animals were allowed to recover. Mice were euthanized at different time points, and lung tissue and BAL fluid were collected for experiments. 0.8-ml aliquots of PBS were used for lavage. Cell-free BAL fluid was stored in a −80° C. freezer for cytokine measurement.
Collagen contents in mouse lungs were measured using a conventional hydroxyproline method (Jiang et al., 2004). Lung tissues were vacuum-dried and hydrolyzed with 6 N hydrochloride acid at 120° C. overnight. Hydroxyproline content was expressed as ‘μg per lung’, unless specified otherwise. The ability of the assay to completely hydrolyze and recover hydroxyproline from collagen was confirmed using samples containing known amounts of purified collagen.
as §1
Single-cell suspensions from mouse lungs were isolated as described (Chen et al., 2012). Mouse lungs were perfused with 5 ml PBS and digested with elastase (4 U/ml; Worthington Biochemical Corporation) and DNase I (100 U/ml; Sigma) to obtain single-cell suspensions for flow cytometry. Primary antibodies to CD31, CD34, CD45, Sca-1, and CD24, and secondary antibody anti-streptavidin were all from eBioscience (San Diego, Calif.). Mouse anti-EpCAM (G8.8, catalog 118215) and anti-Ki67 (catalog 652403) were from BioLegend (San Diego, Calif.). 7-AAD was from BD Biosciences (San Diego, Calif.).
The procedures of staining the cells for flow cytometry and data analysis were described previously (Chen et al., 2012; Liang et al., 2012). In brief, cells were resuspended in Hank's balanced saline solution supplemented with 2% FBS (FBS), 10 mM HEPES, 0.1 mM EDTA, 100 IU/ml penicillin, 100 μg/ml streptomycin (HBSS+ buffer). […]

[2] = bleomycin-treated Tlr4^−/− mice, rIL-6 vs control buffer, FIG. 10G

| Molecule | rIL6-promoted colony formation of CD24^−Sca-1^−AEC2s (CD24^−Sca-1^−AEC2s; STAT3 inhibitor 50 μM or 100 μM with IL-6 protein 100 ng/ml, FIG. 11C) | CFEs of CD24^−Sca-1^−AEC2s (CD24^−Sca-1^−AEC2s; AEC2s from bleomycin-treated SFTPC-Cre;Has2^flox/flox mice, rIL-6 100 ng/ml, FIG. 10F) | CFEs of CD24^−Sca-1^−AEC2s (CD24^−Sca-1^−AEC2s; AEC2s from bleomycin-treated Tlr4^−/− mice, rIL-6 100 ng/ml, FIG. 10E) | CFEs of CD24^−Sca-1^−AEC2s (CD24^−Sca-1^−AEC2s; AEC2s from bleomycin-treated WT mice, dose-dependent, vs control IgG or medium, FIGS. 10C-D) | CFEs of HTII-280^+AEC2s (human HTII-280^+AEC2s) | hydroxyproline content in the lungs ([1]; Tlr4^−/− mice, bleomycin and rIL-6 vs bleomycin alone, FIG. 10H) | AEC2 apoptosis ([1]; bleomycin day 7 Tlr4^−/− mice, rIL-6 vs buffer, FIG. 11D) | inflammatory cell infiltration (BAL cell counts) ([1]; bleomycin day 7 Tlr4^−/− mice, rIL-6 vs buffer, FIG. 11E) | hydroxyproline content in the lungs ([1]; bleomycin-injured SFTPC-Cre;Has2^flox/flox mice, rIL-6 vs buffer, FIG. 10I) | survival ([1]; bleomycin-injured Tlr4^−/− mice, rIL-6 vs buffer, 21 days, FIG. 11F) | survival / mortality ([1]; bleomycin-injured WT mice, anti-IL-6 250 μg per mouse i.p. vs control IgG (FIG. 11G), rIL-6 vs bleomycin alone (data not shown)) | hydroxyproline levels ([1]; bleomycin-injured WT mice, anti-IL-6 vs control IgG, rIL-6 vs bleomycin alone, data not shown) | recovery of CD24^−Sca-1^−AEC2s ([1]; bleomycin-treated Tlr4^−/− mice, rIL-6 2 μg per mouse i.m. day −1, 1, 3, vs control buffer, FIG. 10G) | Ki67 staining of CD24^−Sca-1^−AEC2s [1, 2] | concentration of total BALF proteins [1, 2] |
| --- | --- | --- | --- | --- | --- | --- | --- | --- | --- | --- | --- | --- | --- | --- | --- |
| Cc1ccc(S(=O)(=O)OCC(=O)Nc2ccc(C(=O)O)c(O)c2)cc1 [S3I-201, reference compound] | abolished |  |  |  |  |  |  |  |  |  |  |  |  |  |  |
| rIL-6: Recombinant mouse IL-6 protein (Catalog 406-ML/CF, R&D Systems), used for mouse AEC2s and in mice (protein, UniProt P08505 25-211, looked up) Interleukin-6: FPTSQVRRGDFTEDTTPNRPVYTTSQVGGLITHVLWEIVEMRKELCNGNSDCMNNDDALAENNLKLPEIQRNDGCYQTGYNQEICLLKISSGLLEYHSYLEYMKNNLKDNKKDKARVLQRDTETLIHIFNQEVKDLHKIVLPTPISNALLTDKLESQKEWLRTKTIQFILKSLEEFLKVTLRSTRQT |  | promoted | promoted | increased | markedly increased | lower | did not affect | did not affect | lower hydroxyproline content | increased survival | did not alter | did not alter | more recovery | greater Ki67 staining | lower concentration |
